One assay deals with T1, His-tagged PaMurA (P. aeruginosa, UniProt Q9HVW7 1-421).
T1 construct: MurA of Pseudomonas aeruginosa PAO1; UniProt Q9HVW7 is printed for the covariation analysis; also called H–PaMurA; H–PaMurA(WT); source: purified (details in the Supplementary Information)
Briefly: […] (1:1), 25 mM Tris pH 8.0, 150 mM NaCl, 10% glycerol, 1 mM DTT, […]. The following applies: both partners purified.

In a further assay the target is T2, H–PaMurA(E406K) (P. aeruginosa, UniProt Q9HVW7 1-421, E406K).
T2 construct: source: purified (details in the Supplementary Information)
Described as above. Conditions: both partners purified.

We go through one molecule from article PMC9995270 (Nature, 2023).

B1: Flag-tagged PaLpxC (enzyme)
chain: MIKQRTLKNIIRATGVGLHSGEKVYLTLKPAPVDTGIVFCRTDLDPVVEIPARAENVGETTMSTTLVKGDVKVDTVEHLLSAMAGLGIDNAYVELSASEVPIMDGSAGPFVFLIQSAGLQEQEAAKKFIRIKREVSVEEGDKRAVFVPFDGFKVSFEIDFDHPVFRGRTQQASVDFSSTSFVKEVSRARTFGFMRDIEYLRSQNLALGGSVENAIVVDENRVLNEDGLRYEDEFVKHKILDAIGDLYLLGNSLIGEFRGFKSGHALNNQLLRTLIADKDAWEVVTFEDARTAPISYMRPAAAV
notes: LpxC of Pseudomonas aeruginosa PAO1; UniProt P47205 is printed for the covariation analysis; also called F–PaLpxC; F–LpxC; source: purified (details in the Supplementary Information)
In the case of B1, the binding result with His-tagged PaMurA and with H–PaMurA(E406K) was “binds” throughout.
